{"source": "the nanobody polyreactivity screen of Harvey et al. (2022)"}
{"test": "yeast display, Sf9 membrane polyspecificity reagent, FACS + sequencing; frameworks hold sequencing errors", "method_in_brief": "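Nanobodies from a synthetic yeast display library (Saccharomyces cerevisiae BJ5465), induced 36–48 hours with galactose, were stained 1 hour at 4 °C with 10% biotinylated, detergent-solubilized Sf9 membrane reagent, enriched on streptavidin microbeads, then FACS-sorted. Anti-HA (expression) and streptavidin (reagent binding) fluorescence set low and high (top ~1%) gates. Polyreactivity labels come from the gate of origin. Genes were colony-PCR amplified, MiSeq 2 × 250 sequenced and filtered by CDR length.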"}
{"sequence": "QVQLVESGGGLVQAGGSLRLSCDASGSTFAAYAMGWYRQAPGKERELVAAISRSGGTTYYADSVKGRFTISRDNAKNTVYLQMNSLKPEDTAVYYCAAELSLGNYWYDYWGQGTQVTVSS", "polyreactivity (PSR sort gate)": "high polyreactivity"}
{"sequence": "QVQLVESGGGLVQAGGSLRLICAASGSTFWPYARGWYRQAPGNERELVAAITWSGGRTYYADSVKGRFTISRDNAKNTVYLQMNSLKPEDTAVYYCAADSYVLGRWYGYWGQGTQVTVSS", "polyreactivity (PSR sort gate)": "low polyreactivity"}
{"sequence": "QVQLVESGGGLVPAGGSLRLSCAASGRTFYRYARGWYRKAHGKERELVASITRDGRTNYADSVKGSFTISRDNAKNTVYLQMNSLKPEDTAFYYCNAKLKITHSSSDYWGQGTQVTVSS", "polyreactivity (PSR sort gate)": "high polyreactivity"}
{"sequence": "QVQLVESGGGLVQAGGSLRLSCAASGFIFIKYAMGWYRQAPGKERELLAASSFRGGRTYYADSVKGRFTISRDNAKNTVYLQMNSLNPEETAVYYCAAETRDYSEGYYWGQGTQVTVSS", "polyreactivity (PSR sort gate)": "high polyreactivity"}
{"sequence": "QVQLVESGGGLVQAGGSLRLSCAASGIIFPVYAMGWYRQAPGKERELVAAISNRAGSTYYADSVKGRFTISRDNAKNSVYLQMNSLKPEDTAVYYCAAASRRSGASSWYDYWGQGTQVTVSS", "polyreactivity (PSR sort gate)": "high polyreactivity"}
{"sequence": "QVQLVESGGGLVKAGGSLRLSCAASGRIFSRNAMGWYRQAPGKERELVAAITRRGGNTYYADSVKGRFTISRDNAKNTVYLQMNSLKPEDTAVYYCATRRYYQRWSPGYDYWGQGTQVTVSS", "polyreactivity (PSR sort gate)": "high polyreactivity"}
{"sequence": "QVQLVESGGGLVQAGGSLRLSCAASGSTFFYYAMGWYRKAPGKERDFVAAISKSGGRTYYADTVKGRFTISRDNAKNTVYLQMNSLKPEDTAVYYCAAYYEYRRDYWGQCTQVTVSS", "polyreactivity (PSR sort gate)": "high polyreactivity"}
{"sequence": "QVQLVESGGGLVQAGGSLRLSCAASGGIFGRYAMGWYRQAPGKERELVAAISSRGGSTYYADSVKGRFTISRDNAKNTVYLQMNSLKPEDTAVYYCNALWVSYYTFRMDYWGQGTQVTVSS", "polyreactivity (PSR sort gate)": "high polyreactivity"}
{"sequence": "QVQLVESGGGLVQAGGSLRLSCAASGLIFLRYAMGWYRQAPGTERELVAVISSGGRTYYADSVKGRFTISRDNAKNTVYLQMNSLKPEDTAVYYCAARTRSYWGTYGSYHYDYWGQGTQVTVSS", "polyreactivity (PSR sort gate)": "high polyreactivity"}
{"sequence": "QVQLVESGGGLVQAGGSLRLTCAASGSIFSYYAMGWYRQAPGKERELVADISFTGDSTFYADSVKGRFTISRDNAKNTVYLQMNSLKPEDTADYYCAKDEIMAVYFEYDYWGQGTQVTVSS", "polyreactivity (PSR sort gate)": "low polyreactivity"}
{"sequence": "QFQLVESGGGLVQAGGSLLLSCAASGTFGVYAMGWYRQAPGKERELVAVITDSGGTNYADSVKGRFTISRDNAKNTVFLQMNSLKPEDTAVYYCNTDAGDYYGENYWGQGTQVTVSS", "polyreactivity (PSR sort gate)": "low polyreactivity"}
{"sequence": "QVQLVESGGGLVQAGGSLRLSCAASGSIFQYYAMGWYRQAPGKERELVAAISSAGSTKYADSVKGRFTISRDNAKNTVYLQMNSLKPEDTAVYYCAARDPSRHARRAYDYWGQGTQVTVSS", "polyreactivity (PSR sort gate)": "low polyreactivity"}
{"sequence": "QLQLVESGGGLVQEGGSLRLSCAASGSTFVYNDKGWYRQAPGKDRELVAAITSGVRTYYSDYVKGRFTISRDNAKNTVYLQMNSLKPEDTALYYCGTGWRYAQYYYWGQGTQVTVSS", "polyreactivity (PSR sort gate)": "high polyreactivity"}
{"sequence": "QVQLVESGGGLVQAGGSLRLSCAASGFTFGLYAMGWYRQAPGKERELVAAISWSGDNTYYADSVKGRFTISRDNAKNTVYLQMNSLKPEDTAVYYCAKVTKRNQGYYYWGQGTQVTVSS", "polyreactivity (PSR sort gate)": "high polyreactivity"}
{"sequence": "QVHLVESGGGLDQAGGSLRLSCAASGSIYGPYAMGWYRQAPGKERELVAAIRSGGSTNYADSVKGRFTITRDNAKNTVYLLMTSLKPEDTAVYYCAAEYWGYPYDYWGQGTQVTVSS", "polyreactivity (PSR sort gate)": "low polyreactivity"}
{"sequence": "QVQLVESGGGLVQAGGSLRLSCAASGFIFASNAMGWYRPAPGKERELVAAISTNGGSTNYADSVKGRFTISRDNAKKTVYLQMNSLKPEDTAVYYCNTDFPTQYGTRIGDDYWGQGTQVTVSS", "polyreactivity (PSR sort gate)": "low polyreactivity"}
{"sequence": "QVQLVESGGGLVQAGGSLRLSCAASGSIFYPYAMGWYRQAPGKERELVARISSAGGTYYADSVKGRFTISRDNAKNTVYLQMNSLKPEDTAVYYCAAQARYRYYYWGQGTQVTVSS", "polyreactivity (PSR sort gate)": "high polyreactivity"}
